No end group written: not given here. Alexa 488 = Alexa Fluor 488 dye
T1: Clathrin heavy chain terminal domain (Rattus norvegicus, UniProt P11442)
T1 chain: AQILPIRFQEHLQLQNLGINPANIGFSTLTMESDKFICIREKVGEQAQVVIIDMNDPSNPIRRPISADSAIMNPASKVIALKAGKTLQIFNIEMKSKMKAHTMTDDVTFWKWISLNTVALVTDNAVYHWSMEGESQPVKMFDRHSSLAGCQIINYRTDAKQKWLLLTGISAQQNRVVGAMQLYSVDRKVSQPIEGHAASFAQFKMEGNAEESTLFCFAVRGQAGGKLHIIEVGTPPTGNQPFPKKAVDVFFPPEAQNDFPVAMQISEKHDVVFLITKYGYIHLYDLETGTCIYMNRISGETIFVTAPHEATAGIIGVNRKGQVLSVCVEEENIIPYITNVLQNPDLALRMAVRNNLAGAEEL

B1: clathrin TD, N-terminal domain of the clathrin heavy chain (aa 1-363) (domain or fragment, UniProt P49951 1-363, looked up)
chain: MAQILPIRFQEHLQLQNLGINPANIGFSTLTMESDKFICIREKVGEQAQVVIIDMNDPSNPIRRPISADSAIMNPASKVIALKAGKTLQIFNIEMKSKMKAHTMTDDVTFWKWISLNTVALVTDNAVYHWSMEGESQPVKMFDRHSSLAGCQIINYRTDAKQKWLLLTGISAQQNRVVGAMQLYSVDRKVSQPIEGHAASFAQFKMEGNAEESTLFCFAVRGQAGGKLHIIEVGTPPTGNQPFPKKAVDVFFPPEAQNDFPVAMQISEKHDVVFLITKYGYIHLYDLETGTCIYMNRISGETIFVTAPHEATAGIIGVNRKGQVLSVCVEEENIIPYITNVLQNPDLALRMAVRNNLAGAEEL
B2: AP180 M5 fragment, binding site 1 (peptide)
chain: TAVDAFAAPSPASTASPAKA
B3: Alexa488-AP180 M5 (aa 623-680), wild type, fluorescently labelled (domain or fragment)
chain: {Alexa 488}-ASTASPAK(Alexa 488)AESSGVIDLFGDAFGSGASETQPAPQAVSSSSASADLLAGFGGSFMAPST
B4: AP180 M5 site 1 (residues 667-668 to alanines), fluorescently labelled for AUC (domain or fragment)
chain: {Alexa 488}-ASTASPAK(Alexa 488)AESSGVIDLFGDAFGSGASETQPAPQAVSSSSASADAAAGFGGSFMAPST
B5: AP180 M5 site 2 (residues 639-642 to alanines), fluorescently labelled for AUC (domain or fragment)
chain: {Alexa 488}-ASTASPAK(Alexa 488)AESSGVIDAAAAAFGSGASETQPAPQAVSSSSASADLLAGFGGSFMAPST

What was measured:
[1] = biological target: AP180 M5 (aa 623-680), wild type, middle segment of the AP180 C-terminal domain (UniProt Q05140-2 623-680); test: NMR titration
[2] = biological target: AP180 M5 site 1 (single-site AP180 M5, residues 667-668 mutated to alanines; binding site 2 mutated), Q05140; test: NMR titration
[3] = biological target: AP180 M5 site 2 (single-site AP180 M5, residues 639-642 mutated to alanines; binding site 1 mutated), Q05140; test: NMR titration
[4] = biological target: T1, Clathrin heavy chain terminal domain; test: NMR
[5] = biological target: B1; test: AUC

B1
KD of binding site 1 [1]: 160 ± 23 µM
KD of binding site 2 [1]: 224 ± 48 µM
Kd [2]: 168 µM
Kd [3]: 246 µM

B2
Kd [4]: 160 µM

B3
Kd [5]: 173 ± 11 µM

B4
Kd [5]: 251 ± 3 µM

B5
Kd [5]: 253 ± 8 µM

— paper PMC2981644 (Journal of molecular biology, 2010)
